The nature of this data set: soluble on expression in E. coli; label from the status in PepcDB or PDB records.
Regarding “MGSDKIHHHHHHMYVAVKGGETAIANAHSLLADRRRGDRSLPTMTVDQIVEQLTLAVGRVMAEASLYDRKLAALAIKQARGDMIEAIFLLRAYRTTLPRFGLSEPVDTGAMRIERRISATYKDLPGGQLLGPTFDYTHRLLDPSLLEEGDVEPPVQKIPTSEAAMRVSDILREEGLIEPDGDMPEDHLAGDITRQPIEFPMARDLRLQSLARGDEGFLLALAYSTQRGYGRSHPFAGEIRLGEVEVELDVPELGFAVSLGRIQVTECQMVNQFKGSSKAPPQFTRGYGLVFGQSERKAMAMSLVDRSLRAEELGEDITAPAQDQEFVLSHCDNVQATGFVEHLKLPHYVDFQAELDLVRRMRSEHEQARQQGLDLSEAAE”, the “soluble on expression in E. coli” value is reported as “not soluble”.
Regarding “MGSDKIHHHHHHQTPAPLAEWQFSAGIPLEKLFEDTIPDWEVRLGGAAMVRPRYDGSSNYIVVGGPSIDIRYRDIAFASIGEGLGVNVLRGKNWRAGIALSYNLGRRAKETSPLLDGMENINPAPEAKLFAEYAVSKEFPLVMRVDARRSLGGSDGWIGDIGAYMPMPGSSEKFFWFAGPTMTLADSRYMNAWYGVSASQARPGRPQFSPSGGVRSYGFGVSAVWFFDKHWFATTDVAVMQLVGDAKRSPLTQSSTNGVFDVSVNYQF”, the “soluble on expression in E. coli” value is recorded as “not soluble”.
Then “MAIKNAFYAQSGGVTAVINASAAGLLETARAHSDKIGKVYAGRNGIIGALTEDLIDTSAESTEAIRALRHTPSGAFGSCRYKLKSLEDNRREYERLIEVFKAHDIGYFFYNGGGDSADTCLKVSQLAGTLGYPIQAIHVPKTVDNDLPITDCCPGFGSVAKYIAVSMLEASFDVASMAKTSTKVFILEVMGRHAGWIAAAGGLASNEDHEVPIIILFPEVTFDQEKFLAKTDHYVKEYGYCTVVVSEGVKGTDGKFLSDQGLRDAFGHAQLGGVAPVIANIVKNGLGLKYHWGVADYLQRAARHIASGTDVEQAYAMGKAAVEYAIAGHNSVMPTIERISSSPYAWKTGMVELSKVANVEKMMPADFISEDGFGITGKCREYLSPLIEGEDYPPYKNGLPDYVRLKNVAVTKKLAEFKILEHHHHHH”, with “not soluble”.
For “MGSDKIHHHHHHMIGVRLLVKMSFRSGFRVGRGNETDSTLPTIHSDTIYGAVVYHAFKWSEKAEDFAKKLKVSSLLFVRGDRLLVPKPFLYNTYSLEEDDEESPKELKKASYVFLDKLADYRSIKEASGAVCKENPVEIVRIPRNSLDRITSSSNLYFVEVAFVKEGFTPAFLAEFPDEYEGLFKTAVKSLGDSGIGADSTYGYGLFNAEFESAPDFPEEGEYYLTLSLFVPSAEERSKMNEGYYRVVKRRGVKRDEMKVKKEISYVQEGSVFPFKPEGRGVLKIEDYFVQTSPLCVAFGGDGK”, the “soluble on expression in E. coli” value is reported as “not soluble”.
As to “MSLAKKILVTGAGGYIGRHVVSALLDAGQDVIASDLRLDGVDERATKVQANIFEPNDNLFEELGAPDVCLHMAWRDGFKHNSDNHMGDLSNHYRFLKHMLDSGLKQIAVMGTMHEVGYWEGAIDENTPCHPASMYGIAKNALREATLMLAKEYDATAQWIRAYYIVGDDAHGNSIFSKLLQAANDGKATFPFTTGKNKYDFIDVDELARQISAVVSQDAVDGVINCCTGEPMTLAERVERYIKENDLNIKLDYGAFPDRPYDSPGVWGDASKINKIMKEGHHHHHH”, the “soluble on expression in E. coli” value is “soluble”.
“SMLGPEGGEGFVVKLRGLPWSCSVEDVQNFLSDCTIHDGAAGVHFIYTREGRQSGEAFVELGSEDDVKMALKKDRESMGHRYIEVFKSHRTEMDWVLKHSGPNSADSANDGFVRLRGLPFGCTKEEIVQFFSGLEIVPNGITLPVDPEGKITGEAFVQFASQELAEKALGKHKERIGHRYIEVFKSSQEEVRSYSDPPLKFMSVQRPGPYDRPGTARRYIGIVKQAGLERMRPGAYSTGYGGYEEYSGLSDGYGFTTDLFGRDLSYCLSGMYDHRYGDSEFTVQSTTGHCVHMRGLPYKATENDIYNFFSPLNPVRVHIEIGPDGRVTGEADVEFATHEEAVAAMSKDRANMQHRYIELFLNSTTGASNGAYSSQVMQGMGVSAAQATYSGLESQSVSGCYGAGYSGQNSMGGYD”: the “soluble on expression in E. coli” value is “soluble”.
Regarding “MNKKRMIAMVSTALLVTGCAEVGNAQTVAVENSGQSVQKNIVKSIQSQANPLKTIEPSKPFEDLKPLKKMIGNAQYVGLGENTHGSSEIFTMKFRLVKYLVTEMGFTNFAMEEDWGNGLKLNEYIQTGKGNPREFLKLLYPTDEIIAMIEWMKDYNADPSNKKKIQFIGLDLKALDQGSFNKVIDYVRLHRPDLLAEVEENYKELSSFTGSIQEYMKLTPKLKEKFKANAERVARLLKDENEQANTEIIPSEYIWAKATASAIEKFTTMLLPNDYPSIIKLHEQYLADHAMWAQETFGGKTMVWAHNIHIAKGIIDEKLYPYVAGQFLKERLDNNYVTIGSTTTEGNFTLYSEYNPSTGGKITTDTIPQDVKSFNYTLGKVPYKMFLLDNRHLKGQAEKWVKAKRPLLSIGGQILPNSSVYFDTSLLEQFDIIFHIRKTSPSHIKLEHHHHHH”, the “soluble on expression in E. coli” value is “soluble”.
Then “MGLWFEEGAEERQVLGPFREFLKAEVAPGAAERDRTGAFPWDLVRKLAEFGVFGALVPEAYGGAGLSTRLFARMVEAIAYYDGALALTVASHNSLATGHILLAGSEAQKEAFLPKLASGEALGAWGLTEPGSGSDAAALKTKAEKVEGGWRLNGTKQFITQGSVAGVYVVMARTDPPPSPERKHQGISAFAFFRPERGLKVGRKEEKLGLTASDTAQLILEDLFVPEEALLGERGKGFYDVLRVLDGGRIGIAAMAVGLGQAALDYALAYAKGREAFGRPIAEFEGVSFKLAEAATELEAARLLYLKAAELKDAGRPFTLEAAQAKLFASEAAVKACDEAIQILGGYGYVKDYPVERYWRDARLTRIGEGTSEILKLVIARRLLEAV”, with “soluble”; and “GPGSMRPSRKRQARRQHPWQQRSVAHKAQRAPSSGHGASGVEHLPRDAVVHVAPRQQHRPVGQAHRRIKRHRVVLRQQKVVPHKRHSRARHAHSPTHRHRVLAQQEVAVNKRHHGAATGRNTALHRHAQPQRRLHRQPVHVERTARRQRHAAN”, with “soluble”.
Consider “MKRIGVLTSGGDSPGMNAAIRSVVRKAIYHGVEVYGVYHGYAGLIAGNIKKLEVGDVGDIIHRGGTILYTARCPEFKTEEGQKKGIEQLKKHGIEGLVVIGGDGSYQGAKKLTEHGFPCVGVPGTIDNDIPGTDFTIGFDTALNTVIDAIDKIRDTATSHERTWVIEVMGRHAGDIALYSGLAGGAETILIPEADYDMNDVIARLKRGHERGKKHSIIIVAEGVGSGVDFGRQIQEATGFETRVTVLGHVQRGGSPTAFDRVLASRLGARAVELLLEGKGGRCVGIQNNQLVDHDIAEALANKHTIDQRMYALSKELSI”, for which the “soluble on expression in E. coli” value is given as “soluble”.
“MSRPLSIALISETYPPEVNGVANTLGRLHAGLQQLGHRVQVVRPRQPGDDGRRSDAELVLTRGWPLPGYPGLQWGMSSLHKLLRCWKRQRPDVLYIATEGPLGFSALRAARRLGIPAVSGFHTNFQQYSEHYGFGPLTRLVTGYLRWFHNRTQMTLVPSGSQRMELQRRGFERLNLLSRGVDSQLFHPSRRDPELRRRWGLGEQDIAVLHVGRLAAEKNLGLLGGTFRALCAAHPQLKLRLVLVGDGPERKHLERDLPEALFCGVQRGETLAAHYASGDLFLFPSLSETFGNVVLEAQAAGLAVVAFDQAAAGQHIRHGHNGVLAAPGDKSGFVEVASWLLDDQERLRRVRLNARQHASRQGWDSIVEHFQNYLEDACASPLVQPARSKPERPPAEDGGALPRSRELEHHHHHH”: the “soluble on expression in E. coli” value is on record as “not soluble”.
